Source: PMC2935088

Target: T1, DesT (selenomethionine) (Pseudomonas aeruginosa, UniProt Q9HUS3 1-209)
T1 sequence: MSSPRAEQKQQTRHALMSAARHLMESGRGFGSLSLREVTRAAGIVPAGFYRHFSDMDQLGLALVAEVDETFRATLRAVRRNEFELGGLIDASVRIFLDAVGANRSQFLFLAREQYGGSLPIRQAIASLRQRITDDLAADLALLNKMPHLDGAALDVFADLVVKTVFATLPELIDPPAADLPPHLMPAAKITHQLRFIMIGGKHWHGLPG
Assay: X-ray crystallography

B1: desCB promoter 30mer crystallization duplex (dsDNA)
DNA 1: TTACATCAGTGAACGCTTGTTGACTCGATTG
DNA 2: CAATCGAGTCAACAAGCGTTCACTGATGTA
binding result: binds
